Reference: US20150337051A1 (MORPHOTEK, published 2015)
Numbering of substitutions follows the chain as printed.

How the values were obtained:
Biotinylated TEM1-Fc = molecular target: T1, Biotinylated TEM1-Fc (murine, UniProt Q9HCU0 18-687 (human entry), limits assumed, biotinylated (sites not given)); assay: Biacore SPR, biotinylated TEM1-Fc on streptavidin surface, antibody as analyte, 1:1 model
T1 construct: Ligand captured on the streptavidin sensor surface in the Biacore analysis; also called rTEM-1-Fc; not shown: Fc portion of a murine gamma heavy chain
T1 sequence (looked up): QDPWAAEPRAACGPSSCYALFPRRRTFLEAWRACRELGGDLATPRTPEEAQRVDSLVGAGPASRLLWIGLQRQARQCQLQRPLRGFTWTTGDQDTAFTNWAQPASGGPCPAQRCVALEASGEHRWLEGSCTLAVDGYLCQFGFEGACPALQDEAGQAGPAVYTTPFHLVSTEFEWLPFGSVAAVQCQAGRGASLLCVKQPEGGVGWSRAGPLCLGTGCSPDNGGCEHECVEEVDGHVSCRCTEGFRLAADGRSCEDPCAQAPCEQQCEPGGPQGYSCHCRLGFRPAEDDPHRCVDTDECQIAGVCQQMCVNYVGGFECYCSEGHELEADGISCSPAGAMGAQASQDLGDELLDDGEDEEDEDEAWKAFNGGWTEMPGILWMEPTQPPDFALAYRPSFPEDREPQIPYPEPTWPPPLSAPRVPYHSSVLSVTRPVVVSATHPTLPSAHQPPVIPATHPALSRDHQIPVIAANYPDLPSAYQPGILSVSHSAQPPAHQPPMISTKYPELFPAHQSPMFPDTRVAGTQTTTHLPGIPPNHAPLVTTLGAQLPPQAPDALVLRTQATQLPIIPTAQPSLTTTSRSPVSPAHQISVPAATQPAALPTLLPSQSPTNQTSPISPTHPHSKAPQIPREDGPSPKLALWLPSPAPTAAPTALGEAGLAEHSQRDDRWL
Experimental: Biacore analyses were also performed to determine the affinity of selected isolated TEM-1-specific rat antibodies. For these studies streptavidin-coated sensor surfaces were generated by injecting CAP reagent for 5 minutes at a flow rate of 2 μl/min. Biotinylated TEM1-Fc (10 μg/ml) was injected onto the streptavidin coated sensor surface for 20 sec (Fc2, RL=˜50 RU), 40 sec (Fc3, RL=˜100 RU), and 60 sec (Fc4, RL=˜150 RU) at a flow rate of 25 μl/minute. Rat anti-TEM-1 MAbs were injected for 300 seconds at 0.5 nM, 2 nM, 5 nM, 20 nM, and 50 nM concentrations and the dissociations were monitored for 30 minutes at a flow rate of 25 μl/minute. The sensor surface was regenerated by injecting a CAP kit regeneration solution for 120 sec at a flow rate of 25 μl/minute. The sensorgrams were analyzed using 1:1 binding model.

[1] = molecular target: T2, TEM-1 in a native state on aortic smooth muscle cells (AoSMC) (UniProt Q9HCU0 18-757, limits assumed); assay: flow cytometry on AoSMC, 10 µg/mL antibody, FITC goat anti-rat secondary; cells only 2.5, secondary only 3.5
T2 construct: whole, on cells; also called tumor endothelial marker 1; endosialin
T2 sequence (looked up): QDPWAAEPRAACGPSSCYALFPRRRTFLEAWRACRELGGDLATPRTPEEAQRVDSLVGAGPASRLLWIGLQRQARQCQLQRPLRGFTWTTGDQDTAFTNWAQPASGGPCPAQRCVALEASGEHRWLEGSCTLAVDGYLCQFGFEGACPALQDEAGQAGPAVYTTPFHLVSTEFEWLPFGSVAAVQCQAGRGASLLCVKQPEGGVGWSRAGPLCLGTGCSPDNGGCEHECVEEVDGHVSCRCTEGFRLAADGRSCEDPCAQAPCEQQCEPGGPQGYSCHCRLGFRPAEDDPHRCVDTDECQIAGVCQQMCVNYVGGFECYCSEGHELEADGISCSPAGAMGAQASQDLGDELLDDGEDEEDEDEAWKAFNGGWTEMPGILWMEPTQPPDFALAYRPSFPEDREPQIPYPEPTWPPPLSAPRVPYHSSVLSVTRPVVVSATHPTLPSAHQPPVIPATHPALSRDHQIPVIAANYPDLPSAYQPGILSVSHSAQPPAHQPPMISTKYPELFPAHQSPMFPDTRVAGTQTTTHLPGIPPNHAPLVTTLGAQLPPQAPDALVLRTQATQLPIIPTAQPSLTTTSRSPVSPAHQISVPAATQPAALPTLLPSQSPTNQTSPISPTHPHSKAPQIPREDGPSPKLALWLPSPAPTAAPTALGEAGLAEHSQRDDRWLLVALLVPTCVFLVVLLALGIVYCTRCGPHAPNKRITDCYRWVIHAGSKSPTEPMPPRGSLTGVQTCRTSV
Experimental: FACS analyses were also performed using aortic smooth muscle cells (AoSMC) and HUVEC cells. Cells were harvested using cell dissociation buffer (Invitrogen, #13151-014), washed twice in PBS and re-suspended at 50,000 cells/100 μL FACS buffer (PBS+2% FBS) in a round bottom 96 well plate. Cells were incubated for 1 hour on ice with the described rat TEM-1-specific antibodies at a concentration of 10 μg/mL, washed and then incubated with FITC-conjugated goat-anti-rat secondary antibodies (dilution 1:100) (Southern Biotech). Prior to analysis, cells were labeled with 7-AAD (BD Biosciences) to allow for the exclusion of nonviable cells. Cells were analyzed on an EasyCyte Flow Cytometer (Guava Technologies). The data in Table 6 indicate that all of the tested antibodies bind TEM-1 in a native state.

B1: Antibody 7D3 (antibody, V domains shown)
VH: EVQLVESGGGLVQPKGSLKLSCAASGFDFKTYAMSWVRQAPGKGLDWIVTISTKGHNYATLYADSVKERFTISRDDSQSMVYLQMNNLKTEDTALYYCTVAGYNFDYWGQGVMVTVSS
VL: DVVLTQTPSILSATIGQSVSISCRSSQSLLDSDGNTYLYWFLQRPGQSPQRLIYLVSNLGSGVPNRFSGSGSGTDFTLKISGVEAGDLGVYYCMQATHAPFTFGSGTKLEIK
notes: Rat monoclonal antibody from hybridoma, IgG2a/kappa; also called 7D3.F5.E8.D8; ATCC PTA-12538
Kd (Biotinylated TEM1-Fc): 2.03 pM
koff (Biotinylated TEM1-Fc): 1.34e-07 s⁻¹
kon (Biotinylated TEM1-Fc): 65900 M⁻¹ s⁻¹
Geometric mean of resulting FACS plot [1]: 63.4

B2: Antibody 10H8 (antibody, V domains shown)
VH: QVQLKESGPGLVQPSQTLSLTCTVSGFSLTNYNIHWVRQPPGKGLEWMGAIWSGGSADYDSALKSRLSISRDTSKSQVFLKMDNLQTEDTAIYYCTRDQLGGWYFDFWGPGTKVTVSS
VL: DIVMTQTPSSQAVSAGEKVTMSCTSGQSLLYNENNKNYLAWYQLKPGQSPRLLIYWASTRESGVPDRFIGSGSGTYFTLTISSVQAEDLAVYYCQQYFRFPRTFGGGTKLELK
notes: Rat monoclonal antibody from hybridoma, IgG2a/kappa; also called 10H8.D7.E3; ATCC PTA-12546
Geometric mean of resulting FACS plot [1]: 52.7

B3: Antibody 15D10 (antibody, V domains shown)
VH: QVQLMESGPGLVQPSETLSLTCTVSGFSLTNYNIHWVRQPPGKGLEWMGLMWSGGNTDYNSALKSRLTISRDTSKNQVFLKMNSLQSEDTTTYYCARDSGYGEGRLDYWGQGVMVTVSS
VL: DIVLTQAPLSVSVTPGESASISCRSSKSLLGSKGINFLYWYLQKPGKSPQLLIYRMSNLASGVPDRFSGSGSETDFILKISKVETEDVGVYYCAQFLEYPNSFGAGTKLELK
notes: Rat monoclonal antibody from hybridoma, IgG2a/kappa; also called 15D10.G4.C12; ATCC PTA-12543
Kd (Biotinylated TEM1-Fc): 106 pM
koff (Biotinylated TEM1-Fc): 0.000105 s⁻¹
kon (Biotinylated TEM1-Fc): 993000 M⁻¹ s⁻¹
Geometric mean of resulting FACS plot [1]: 86.4

B4: Antibody 15F8 (antibody, V domains shown)
VH: EVQLVESGGGLVQPGRSMKLSCSASGFTFRNYYMAWVRQAPTRGLEWVASTGTGGDFTYYRDSVKGRFTISRDTAENTLYLQMDSLRSEDTATYYCARAYGYFDYWGQGVKVTVSS
VL: DIVLTQSPTTLSVTPGETVSLSCRASHSVGTNLHWYQQKPNESPRLLIKYVSQSNSGIPSRFSASGSGTDFTLNIKNVEFNDVSSYFCQQTQSWPLTFGAGTKLEIK
notes: Rat monoclonal antibody from hybridoma, IgG2a/kappa; also called 15F8.G6.B4; ATCC PTA-12540
Kd (Biotinylated TEM1-Fc): 0.222 pM
koff (Biotinylated TEM1-Fc): 1.65e-07 s⁻¹
kon (Biotinylated TEM1-Fc): 742000 M⁻¹ s⁻¹
Geometric mean of resulting FACS plot [1]: 72.5

B5: Antibody 16D2 (antibody, V domains shown)
VH: B4 VH with T28I, R43K, N77S, R87K
VL: B4 VL with P40T, N77D, N81D, A100S
notes: Rat monoclonal antibody from hybridoma, IgG2a/kappa; also called 16D2.H12.E7.G9; ATCC PTA-12544
Kd (Biotinylated TEM1-Fc): 0.0131 pM
koff (Biotinylated TEM1-Fc): 1.07e-08 s⁻¹
kon (Biotinylated TEM1-Fc): 810000 M⁻¹ s⁻¹
Geometric mean of resulting FACS plot [1]: 98

B6: Antibody 9A5 (antibody, V domains shown)
VH: B4 VH with S23A, T53S, K111R
VL: B4 VL with P40T, Y50D, V51A, N55M, N81D, A100S
notes: Rat monoclonal antibody from hybridoma, IgG2a/kappa; also called 9A5.G12.B10.F8.F6; ATCC PTA-12542
Kd (Biotinylated TEM1-Fc): 21.6 pM
koff (Biotinylated TEM1-Fc): 1.84e-05 s⁻¹
kon (Biotinylated TEM1-Fc): 850000 M⁻¹ s⁻¹
Geometric mean of resulting FACS plot [1]: 89.9

B7: Antibody 11D1 (antibody, V domains shown)
VH: EVQLVESDGGLVQPGRSLKLSCAASGFSFSDYYMAWVRQAPTKGLEWVATISYDGSGSYYRDSVKGRFTVSRDNAKTTLYLQMDSLRSEDTATYYCARGGGLDYWGQGVMVTVSS
VL: DNVLTQAPLAVSVTPGESASISCRSSKSLLSIEGINSLYWYLQKPGKSPQLLLFRMSNLASGVPDRFSGSGSETDFTLKISQVETEDVGVYYCAQFLEFPFTFGSGTKLEIK
notes: Rat monoclonal antibody from hybridoma, IgG2a/kappa; also called 11D1.G10.F8; ATCC PTA-12541
Kd (Biotinylated TEM1-Fc): 240 pM
koff (Biotinylated TEM1-Fc): 9.57e-05 s⁻¹
kon (Biotinylated TEM1-Fc): 400000 M⁻¹ s⁻¹
Geometric mean of resulting FACS plot [1]: 46.3

B8: Antibody 7H12 (antibody, V domains shown)
VH: EVQLVESGGGLVQPGRSMILSCAASGFTFSNFDMAWVRQAPKMGLEWVATITYDGSRTNYRDSVKGRFTISRDSAKNTLYLQMDSLTSEDTATYYCARHGSSYYWFFDFWGPGTMVTVSS
VL: ETVMTQSPTSMPTSIGERVTLNCKASQSVGINVDWYQQTPGQSPKLLIYTASNRHTGVPDRFAGSGSGRDFTLTISNVEAEDLVVYYCLQYGSLPFTFGAGTKLELK
notes: Rat monoclonal antibody from hybridoma, IgG1/kappa; also called 7H12.H5.E7; ATCC PTA-12545
Kd (Biotinylated TEM1-Fc): 0.0279 pM
koff (Biotinylated TEM1-Fc): 3.01e-08 s⁻¹
kon (Biotinylated TEM1-Fc): 1.08e+06 M⁻¹ s⁻¹
Geometric mean of resulting FACS plot [1]: 59.9

B9: Antibody 9G5 (antibody, V domains shown)
VH: EVKLEESGGGLVQPGMSVKLSCATSGFTFSDYWMEWVRQAPGKGLEWVAEIRNKLNNYVTNYGKPVRGRFTISRDDSKSIVYLQVNSIRSEDTGIYYCTRIQRVITTGEYFDYWGQGVMVTVSS
VL: DIQMTQSPSLLSASEGDRVTLSCKASQNIYKYLNWYQQKLGEAPKLLIYNINNLQTGIPSRFSGSGSGTDFTLTISSLQPEDVATYYCYQYNSGRAFGGGTKLELK
notes: Rat monoclonal antibody from hybridoma, IgG1/kappa; also called 9G5.F2.C1.F4; anti-TEM-1 clone 9G5
Geometric mean of resulting FACS plot [1]: 57.4

B10: Antibody 14G3 (antibody, V domains shown)
VH: EVQLVEFGGGLVQPGRSLKLSCAASGFTFSDYNLAWVRQAPKKGLEWVATISYNGSEIYYRDSVKGRFTISRDNAKNTLYLQMDSLRSEDTATYYCARHWREYYSSYSSYVMDAWGQGASVTVSS
VL: DIVMTQTPSSQAVSAGAKVTLSCKSSQSLLYNKNKKNYLAWYQQKPGQSPKLLIYWASTRESGVPDRFIGSGSGTDFTLTISSVQAEDLAIYYCQQYYTFPTFGAGTKLELK
notes: Rat monoclonal antibody from hybridoma, IgG2a/kappa; also called 14G3.H4.F11.H7; ATCC PTA-12539
Geometric mean of resulting FACS plot [1]: 94.2
